Here are results for 22 sequences from the Immune Epitope Database (IEDB).

Test [1] addresses HLA-B*15:01. The test can be described thus: IEDB peptide-MHC binding, purified MHC/direct/fluorescence; filed as Kd, often an IC50 or EC50 that approximates it; ≥ and ≤ were set here for values at or beyond the usual limits of such assays.
The target in another test is HLA-C*05:01. Described as above.
Test [2] has as its target HLA-A*03:01. As to the kind of experiment: IEDB peptide-MHC binding, purified MHC/competitive/fluorescence; ≥ and ≤ were set here for values at or beyond the usual limits of such assays.
Test [3] has as its target HLA-B*07:02. Described as above.
Test [4] concerns the target HLA-B*15:01. The test is described as above.
The target of test [5] is HLA-B*58:01. The test can be described thus: IEDB peptide-MHC binding, purified MHC/competitive/fluorescence; filed as Kd, often an IC50 or EC50 that approximates it; ≥ and ≤ were set here for values at or beyond the usual limits of such assays.
Test [6] has as its target HLA-B*07:02. As to the kind of experiment: IEDB peptide-MHC binding, purified MHC/direct/fluorescence; filed as Kd, often an IC50 or EC50 that approximates it; ≥ and ≤ were set here for values at or beyond the usual limits of such assays.
Test [7] concerns the target HLA-B*46:01. Described as above. The settings on record: source organism: Giardia lamblia ATCC 50803.
Test [8] has as its target HLA-A*02:01. As to the kind of experiment: IEDB peptide-MHC binding, purified MHC/competitive/fluorescence; ≥ and ≤ were set here for values at or beyond the usual limits of such assays. The settings on record: source organism: Zaire ebolavirus.
The next test concerns the target HLA-A*24:02. The description is as above. As to conditions: source organism: Zaire ebolavirus.
Test [9] addresses HLA-B*08:01. The test is described as above.
For a further test, the target named is HLA-C*15:02. As to the kind of experiment: IEDB peptide-MHC binding, purified MHC/direct/fluorescence; filed as Kd, often an IC50 or EC50 that approximates it; ≥ and ≤ were set here for values at or beyond the usual limits of such assays.
In test [10] the target is HLA-A*24:03. As to the kind of experiment: IEDB peptide-MHC binding, purified MHC/competitive/fluorescence; filed as Kd, often an IC50 or EC50 that approximates it; ≥ and ≤ were set here for values at or beyond the usual limits of such assays.
In test [11] the target is HLA-A*11:01. The test can be described thus: IEDB peptide-MHC binding, purified MHC/competitive/fluorescence; ≥ and ≤ were set here for values at or beyond the usual limits of such assays. As to conditions: source organism: Zaire ebolavirus.
For test [12], the target named is HLA-A*01:01. As to the kind of experiment: IEDB peptide-MHC binding, purified MHC/direct/fluorescence; filed as Kd, often an IC50 or EC50 that approximates it; ≥ and ≤ were set here for values at or beyond the usual limits of such assays.
Test [13] has as its target HLA-A*26:01. The test can be described thus: IEDB peptide-MHC binding, purified MHC/competitive/fluorescence; filed as Kd, often an IC50 or EC50 that approximates it; ≥ and ≤ were set here for values at or beyond the usual limits of such assays. The settings on record: source organism: Homo sapiens.
Test [14] concerns the target HLA-A*69:01. The description is as above. As to conditions: source organism: Homo sapiens.
Test [15] concerns the target HLA-B*15:01. The test is described as above.
A further test concerns the target HLA-B*18:01. The test is described as above. As to conditions: source organism: Homo sapiens.
In another test the target is HLA-B*27:03. The description is as above. As to conditions: source organism: Homo sapiens.
Another test deals with HLA-B*39:01. The description is as above.
Test [16] concerns the target HLA-B*46:01. Described as above. The settings on record: source organism: Homo sapiens.
For a further test, the target named is HLA-B*51:01. The test is described as above.
In another test the target is HLA-B*57:01. Described as above. The settings on record: source organism: Homo sapiens.
In test [17] the target is HLA-A*02:01. The test can be described thus: IEDB peptide-MHC binding, purified MHC/direct/fluorescence; filed as Kd, often an IC50 or EC50 that approximates it; ≥ and ≤ were set here for values at or beyond the usual limits of such assays. As to conditions: source organism: Pseudomonas aeruginosa.
The target of test [18] is HLA-A*03:01. Described as above. The settings on record: source organism: Pseudomonas aeruginosa.
In test [19] the target is HLA-A*11:01. The test is described as above. The settings on record: source organism: Pseudomonas aeruginosa.
The target in test [20] is HLA-A*24:03. Described as above. The settings on record: source organism: Pseudomonas aeruginosa UCBPP-PA14.
Test [21] has as its target HLA-A*26:01. The description is as above. As to conditions: source organism: Pseudomonas aeruginosa UCBPP-PA14.
The next test has as its target HLA-A*30:01. The test is described as above. As to conditions: source organism: Pseudomonas aeruginosa.
The target of another test is HLA-A*31:01. The description is as above. As to conditions: source organism: Pseudomonas aeruginosa.
Test [22] has as its target HLA-A*69:01. Described as above. The settings on record: source organism: Pseudomonas aeruginosa UCBPP-PA14.
Test [23] concerns the target HLA-B*08:01. The description is as above. The settings on record: source organism: Pseudomonas aeruginosa.
The target in the next test is HLA-B*27:05. Described as above. As to conditions: source organism: Pseudomonas aeruginosa UCBPP-PA14.
A further test deals with HLA-B*40:01. The test is described as above. As to conditions: source organism: Pseudomonas aeruginosa UCBPP-PA14.
The target of test [24] is HLA-B*58:01. Described as above. The settings on record: source organism: Pseudomonas aeruginosa UCBPP-PA14.
Test [25] concerns the target HLA-A*01:01. As to the kind of experiment: IEDB peptide-MHC binding, purified MHC/competitive/fluorescence; filed as Kd, often an IC50 or EC50 that approximates it; ≥ and ≤ were set here for values at or beyond the usual limits of such assays. As to conditions: source organism: Escherichia coli B171.
The target in test [26] is HLA-A*03:01. Described as above. The settings on record: source organism: Escherichia coli B171.
[27] abbreviates: source organism: Giardia lamblia ATCC 50803.
[28] abbreviates: source organism: Zaire ebolavirus.
Where [29] appears, read: source organism: Bacillus anthracis str. A2012.
[30] abbreviates: source organism: Escherichia coli str. K-12 substr. MG1655.
The mark [31] stands for this setting: source organism: Vaccinia virus Copenhagen.
The mark [32] stands for this setting: source organism: Pseudomonas aeruginosa UCBPP-PA14.
Setting [33] is: source organism: Escherichia coli B171.

Some results are limits rather than exact numbers.

On to VLSDINAVF, for which the values for the Kd with HLA-B*15:01 [1] (source organism: Mycobacterium tuberculosis C) and in the test with HLA-C*05:01 (source organism: Mycobacterium tuberculosis H37Ra) were 0.679 µM and 0.009 µM, respectively.

Regarding IIAVARKHH, the IC50 in the test with HLA-A*03:01 [2] (source organism: Variola virus) stood at 27.7 µM; with HLA-B*07:02 [3] (source organism: Variola virus), 59.7 µM; with HLA-B*15:01 [4] (source organism: Variola virus) it was 27.2 µM.

Regarding IQARPCDRW, the Kd with HLA-B*58:01 [5] (source organism: Escherichia coli 536) worked out at 0.19 µM.

Regarding VLASGPGPF, the Kd in the test with HLA-B*07:02 [6] (setting [27]) is 9.38 µM; in the test with HLA-B*15:01 [1] (setting [27]), 0.0184 µM; in the test with HLA-B*46:01 [7], no less than 20 µM; with HLA-C*05:01 (setting [27]) it was no less than 20 µM.

EVNSFKAAL: the IC50 with HLA-A*02:01 [8] was no less than 236 µM; with HLA-A*24:02, 33.2 µM; in the test with HLA-B*07:02 [3] (setting [28]), no less than 139 µM; with HLA-B*08:01 [9] (setting [28]), no less than 85.9 µM.

In turn, VSSFQDILL gave a Kd in the test with HLA-B*58:01 [5] (source organism: Influenza A virus (A/X-31(H3N2))) of 0.687 µM.

As to RAFSLYMTL, the results for the Kd in the test with HLA-C*15:02 (setting [29]) and with HLA-A*24:03 [10] (setting [29]) were 0.466 µM and 0.0586 µM, respectively.

Turning to VGHMMVIFR, the IC50 was 3.68 µM with HLA-A*02:01 [8]; no less than 218 µM with HLA-A*03:01 [2] (setting [28]); 0.196 µM in the test with HLA-A*11:01 [11]; no less than 271 µM with HLA-A*24:02; no less than 185 µM with HLA-B*08:01 [9] (setting [28]); no less than 1340 µM with HLA-B*15:01 [4] (setting [28]).

Regarding LHPLARTAK, the IC50 with HLA-A*03:01 [2] (setting [28]) is 34.6 µM; in the test with HLA-A*11:01 [11], 15.4 µM; with HLA-B*07:02 [3] (setting [28]), no less than 158 µM; in the test with HLA-B*08:01 [9] (setting [28]), no less than 277 µM.

VTDTALAYF: the Kd with HLA-A*01:01 [12] (source organism: Homo sapiens) was 0.0009 µM; with HLA-C*05:01 (source organism: Homo sapiens), 0.005 µM; with HLA-A*26:01 [13], no less than 20 µM; with HLA-A*69:01 [14], no less than 20 µM; with HLA-B*15:01 [15] (source organism: Homo sapiens), no less than 20 µM; in the test with HLA-B*18:01, no less than 20 µM. Also, the Kd with HLA-B*27:03, with HLA-B*39:01 (source organism: Homo sapiens), in the test with HLA-B*46:01 [16], in the test with HLA-B*51:01 (source organism: Homo sapiens) and in the test with HLA-B*57:01 was no less than 20 µM throughout.

As for AKIEAPLLL, the Kd in the test with HLA-C*15:02 (setting [30]) was no less than 20 µM; with HLA-B*39:01 (setting [30]) it was 0.0075 µM.

NTPVYKLDI registered an IC50 with HLA-B*07:02 [3] (setting [28]) of no less than 119 µM.

For the sequence FINKLNGAM, the IC50 in the test with HLA-B*08:01 [9] (setting [31]) is no less than 138 µM; in the test with HLA-B*15:01 [4] (setting [31]) it was 27.6 µM.

In the case of LAWQRTLKW, the Kd in the test with HLA-B*51:01 (setting [30]) was no less than 20 µM; in the test with HLA-B*58:01 [5] (setting [30]), 0.0083 µM.

Consider TAKVKNEVN, for which the IC50 with HLA-B*08:01 [9] (setting [28]) is no less than 365 µM.

For the sequence YTFCRLNVK, the dissociation constant (Kd) in the test with HLA-A*01:01 [12] (source organism: Pseudomonas aeruginosa) was 2.36 µM; in the test with HLA-A*02:01 [17] it was 11.5 µM; with HLA-A*03:01 [18], 0.213 µM; with HLA-A*11:01 [19], 0.0487 µM; with HLA-A*24:03 [20] it was no less than 20 µM; with HLA-A*26:01 [21], no less than 20 µM. Also, the dissociation constant Kd with HLA-A*30:01 was 0.0138 µM; in the test with HLA-A*31:01, 0.265 µM; with HLA-A*69:01 [22], no less than 20 µM; in the test with HLA-B*07:02 [6] (setting [32]), no less than 20 µM; with HLA-B*08:01 [23], 10.6 µM; with HLA-B*15:01 [1] (setting [32]), no less than 20 µM. Further, the Kd with HLA-B*27:05, with HLA-B*40:01 and in the test with HLA-B*58:01 [24] was no less than 20 µM each time.

VSALRLFNY: the Kd in the test with HLA-A*01:01 [25] was 0.787 µM; with HLA-A*03:01 [26] it was no less than 20 µM; with HLA-B*15:01 [15] (setting [33]), 0.796 µM; in the test with HLA-B*58:01 [5] (setting [33]), 1.02 µM.

On to MASENSSAM, for which the IC50 came to 12.1 µM with HLA-A*02:01 [8], 28.4 µM in the test with HLA-B*07:02 [3] (setting [28]) and 21.9 µM with HLA-B*15:01 [4] (setting [28]).

Turning to EKVQRQIQV, the IC50 with HLA-B*08:01 [9] (setting [28]) is no less than 181 µM.

Sequence KWGKKIILF returned a Kd with HLA-A*24:03 [10] (source organism: Bacillus anthracis str. A0488) of 0.0003 µM.

With YQQLREAAT, the IC50 in the test with HLA-A*02:01 [8] was 29.7 µM; in the test with HLA-B*08:01 [9] (setting [28]) it was no less than 183 µM.

For the sequence NAFHHPSAV, in the test with HLA-C*15:02 (source organism: Homo sapiens), the Kd came out at 0.695 µM.

Broadly, the Kd is the concentration at which binding is half-saturated. As usually defined, the IC50 is the concentration at which inhibition is half-maximal. A lower IC50 goes with greater potency in that assay.
